The Km is the concentration of substrate that gives half-maximal velocity. What is called kcat is the maximal rate divided by the concentration of active sites. As a reminder, the kcat/Km is the turnover number divided by the Michaelis constant.

From article PMC11481913, “Rational design of a flavoenzyme for aerobic nicotine catabolism” (mBio, 2024) come the findings set out here.

The test system of the series is CNCCCC(=O)c1cccnc1. The experiment in a line: purified protein. The note with it: Tris-HCl pH 8.0, 30 C, O2 as acceptor. The series is classed as biochemical, Pseudomonas putida.
Turning to Pnao (Pseudomonas putida S16), the Km was determined as 32 ± 1 µM, the kcat was found to be 197 ± 1 s⁻¹ and the kcat/Km was 6.1e+06 M⁻¹ s⁻¹.
The corresponding values for Pnao (Pseudomonas putida S16; F388A) are 54 ± 1 µM, 0.75 ± 0.01 s⁻¹ and 14000 M⁻¹ s⁻¹.
In the same order, the values of “Pnao (Pseudomonas putida S16; N224G/W220Y)” are 150 ± 0 µM, 135 ± 2 s⁻¹ and 910000 M⁻¹ s⁻¹.
In the same order, the values of “Pnao (Pseudomonas putida S16; N224I/W220Y)” are 570 ± 50 µM, 383 ± 19 s⁻¹ and 680000 M⁻¹ s⁻¹.
Turning to Pnao (Pseudomonas putida S16; R96A), the Michaelis-Menten constant (Km) is 56 ± 1 µM, the kcat turned out to be 0.75 ± 0.06 s⁻¹ and the kcat/Km was 13000 M⁻¹ s⁻¹.
In the same order, the values of “Pnao (Pseudomonas putida S16; R96A/S461A)” are 83 ± 12 µM, 0.39 ± 0.01 s⁻¹ and 4700 M⁻¹ s⁻¹.
